Measurements published in patent publication US6471689B1, “Implantable drug delivery catheter system with capillary interface” (Thomas Jefferson University, priority 1999, dated 2002).

Assay: Human insulin infusion via implanted drug delivery catheter system (DDCS) in rats, plasma insulin and glucose versus time
Format: in vivo
Conditions: for Time at which blood insulin levels peaked post infusion: human insulin 10 milliU/kg/min, 20 weeks post implantation
From the text: The devices were implanted in 4 rats weighing ˜350 gm. Each animal was implanted with 2 devices: a mesenteric DDCS, implanted within the loose connective tissue of the bowel mesentery, and a subcutaneous DDCS implanted in the dorsal subcutaneous loose connective tissue. Catheters were primed with saline and proximal ends sealed. Catheters were then coiled and secured within the abdominal and subcutaneous spaces, respectively. There were no perioperative surgical complications and all 4 animals increased to a mean weight of 592±83 gm by 20 weeks.
The proximal portion of the catheters was exteriorized at 20-weeks post implantation and human insulin infusions were started at 10 milliU/kg/min with infusion rates of 60 μL/hr after careful determination of catheter dead space volume. Two animals were randomly assigned to receive insulin via mesenteric DDCS and two animals received infusions via subcutaneous DDCS. When the infusion was terminated, depth of anesthesia was increased and DDCS and surrounding tissue were explanted and immediately immersed in 10% buffered formalin for histological analysis. Tissue specimens were embedded in paraffin and 7-10 microns sections were prepared for H and E stains.

**Q.** Which “Time at which blood insulin levels peaked post infusion” value (mesenteric DDCS) does the source give for insulin here?
**A.** The value was ≤ 5 min.

**Q.** And the “Blood glucose concentrations during insulin infusion” value (mesenteric and subcutaneous DDCS, 10 milliU/kg/min, measured at 5, 15, 30 min, not fasted, isoflurane anesthesia)?
**A.** Its value is “decreased in proportion to increasing insulin concentrations”.

**Q.** What about the “Time at which blood insulin levels peaked post infusion” value (subcutaneous DDCS) of the same substance?
**A.** Its value is ≤ 5 min.
